Assay results reported in patent publication US11278600B2, “Human alpha-galactosidase variants” (Codexis, Inc., priority 2014, dated 2022).

Experiments:
Assay type in all cases: biochemical
[1] = HTP-analysis of yeast culture supernatants, no challenge (MUGal hydrolysis); conditions: activity of the variant/activity of WT GLA (SEQ ID NO: 5), yeast supernatant
Procedure, shortened: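 Activity read as 4-methylumbelliferyl α-D-galactopyranoside hydrolysis: fluorescence (355/448 nm) after sodium carbonate stop, following 30-180 min at 37° C with 2 mM MUGal stock at pH 4.6–4.8. Enzyme source is unchallenged culture supernatant of INVSc1 yeast expressing GLA variants, grown 66-84 h at 30° C.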

[2] = HTP-analysis of supernatants pretreated with acid (MUGal hydrolysis); conditions: challenge at pH 4.2; activity of the variant/activity of WT GLA (SEQ ID NO: 5); yeast supernatant
Procedure, shortened: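 GLA variants were secreted from INVSc1 yeast grown 66-84 h at 30° C. in SD-Ura with 2% glucose; supernatants were mixed with McIlvaine buffer pH 3.3-4.3 and held at 37° C. for 1-3 h. Residual activity on MUGal at pH 4.8 was then measured by fluorescence.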

[3] = HTP-analysis of supernatants pretreated with base (MUGal hydrolysis); conditions: challenge at pH 7.1; activity of the variant/activity of WT GLA (SEQ ID NO: 5); yeast supernatant
Procedure, shortened: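 GLA variants were secreted by transformed INVSc1 yeast grown 66-84 h at 30° C. Supernatants were exposed to neutral-to-basic buffers (pH 7.0-9.7) at 37° C for 1-18 h, then assayed with MUGal in acidic citrate/McIlvaine buffer, with fluorescence read after quenching.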

B1: 110 (protein)
chain: LDNGLARTPTMGWLHWERFMCNLDCQEEPDSCISEKLFMEMAELMVSEGWKDAGYEYLCIDDCWMAPQRDSEGRLQADPQRFPHGIRQLANYVHSKGLKLGIYADVGNKTCAGFPGSFGYYDIDAQTFADWGVDLLKFDGCYCDSLENLADGYKHMSLALNRTGRSIVYSCEWPLYMWPFQKPNYTEIRQYCNHWRNFADIDDSWKSIKSILDWTSFNQERIVDVAGPGGWNDPDMLVIGNFGLSWNQQVTQMALWAIMAAPLFMSNDLRHISPQAKALLQDKDVIAINQDPLGKQGYQLRQGDNFEVWERPLSGLAWAVAMINRQEIGGPRSYTIAVASLGKGVACNPACFITQLLPVKRKLGFYEWTSRLRSHINPTGTVLLQLENTMQMSKDLDL
modifications: Synthetic Polypeptide sequence of Variant No. 110 of mature Human GLA
- Relative Activity of GLA Variants After No Challenge (NC) [1]: +++ (+++ = >2.5 relative activity over WT GLA (SEQ ID NO: 5))
- Relative Activity of GLA Variants After Challenge at pH 4.2 [2]: ++ (++ = >1.5 to 2.5 relative activity over WT GLA (SEQ ID NO: 5))
- Relative Activity of GLA Variants After Challenge at pH 7.1 [3]: +++ (+++ = >2.5 relative activity over WT GLA (SEQ ID NO: 5))

B2: 113 (protein)
chain: LDNGLARTPTMGWLHWERFMCNLDCQEEPDSCISEKLFMEMAELMVSEGWKDAGYEYLCIDDCWMAPQRDSEGRLQADPQRFPHGIRQLANYVHSKGLKLGIYADVGNKTCAGFPGSFGYYDIDAQTFADWGVDLLKFDGCYCDSLENLADGYKHMSLALNRTGRSIVYSCEWPLYMWPFQKPNYTEIRQYCNHWRNFADIDDSWKSIKSILDWTSFNQERIVDVAGPGGWNDPDMLVIGNFGLSWNQQVTQMALWAIMAAPLFMSNDLRHISPQAKALLQDKDVIAINQDPLGKQGYQLRQGDNFEVWERPLSGLAWAVAMINRQEIGGPRSYTIAVASLGKGVACNPACFITQLLPVKRKLGFYEWTSRLRSHINPTGTVLLQLENTMQMSKDLQL
modifications: Synthetic Polypeptide sequence of Variant No. 113 of mature Human GLA
- Relative Activity of GLA Variants After No Challenge (NC) [1]: ++ (++ = >1.5 to 2.5 relative activity over WT GLA (SEQ ID NO: 5))
- Relative Activity of GLA Variants After Challenge at pH 4.2 [2]: + (+ = 0.5 to 1.5 relative activity over WT GLA (SEQ ID NO: 5))
- Relative Activity of GLA Variants After Challenge at pH 7.1 [3]: +++ (+++ = >2.5 relative activity over WT GLA (SEQ ID NO: 5))

B3: 116 (protein)
chain: LDNGLARTPTMGWLHWERFMCNLDCQEEPDSCISEKLFMEMAELMVSEGWKDAGYEYLCIDDCWMAPQRDSEGRLQADPQRFPHGIRQLANYVHSKGLKLGIYADVGNKTCAGFPGSFGYYDIDAQTFADWGVDLLKFDGCYCDSLENLADGYKHMSLALNRTGRSIVYSCEWPLYMWPFQKPNYTEIRQYCNHWRNFADIDDSWKSIKSILDWTSFNQERIVDVAGPGGWNDPDMLVIGNFGLSWNQQVTQMALWAIMAAPLFMSNDLRHISPQAKALLQDKDVIAINQDPLGKQGYQLRQGDNFEVWERPLSGLAWAVAMINRQEIGGPRSYTIAVASLGKGVACNPACFITQLLPVKRKLGFYEWTSRLRSHINPTGTVLLQLENTMQMSKDLLE
modifications: Synthetic Polypeptide sequence of Variant No. 116 of mature Human GLA
- Relative Activity of GLA Variants After No Challenge (NC) [1]: ++ (++ = >1.5 to 2.5 relative activity over WT GLA (SEQ ID NO: 5))
- Relative Activity of GLA Variants After Challenge at pH 4.2 [2]: ++ (++ = >1.5 to 2.5 relative activity over WT GLA (SEQ ID NO: 5))
- Relative Activity of GLA Variants After Challenge at pH 7.1 [3]: ++ (++ = >1.5 to 2.5 relative activity over WT GLA (SEQ ID NO: 5))

B4: 34 (protein)
chain: LDNGLARTPTMGWLHWERFMCNLDCQEEPDSCISEKLFMEMAELMVSEGWKDAGYEYLCIDDCWMAPQRDSEGRLQADPQRFPHGIRQLANYVHSKGLKLGIYADVGNKTCAGFPGSFGYYDIDAQTFADWGVDLLKFDGCYCDSLENLADGYKHMSLALNRTGRSIVYSCEWPLYMWPFQKPNYTEIRQYCNHWRNFADIDDSWKSIKSILDWTSFNQERIVDVAGPGGWNDPDMLVIGNFGLSWNQQVTQMALWAIMAAPLFMSNDLRHISPQAKALLQDKDVIAINQDPLGKQGYQLRQGDNFEVWERPLSGLAWAVAMINRQEIGGPRSYTIPVASLGKGVACNPACFITQLLPVKRKLGFYEWTSRLRSHINPTGTVLLQLENTMQMSKDLLL
modifications: Synthetic Polypeptide sequence of Variant No. 34 of mature Human GLA
- Relative Activity of GLA Variants After No Challenge (NC) [1]: + (+ = 0.5 to 1.5 relative activity over WT GLA (SEQ ID NO: 5))
- Relative Activity of GLA Variants After Challenge at pH 4.2 [2]: ++ (++ = >1.5 to 2.5 relative activity over WT GLA (SEQ ID NO: 5))
- Relative Activity of GLA Variants After Challenge at pH 7.1 [3]: ++ (++ = >1.5 to 2.5 relative activity over WT GLA (SEQ ID NO: 5))

B5: 111 (protein)
chain: LDNGLARTPTMGWLHWERFMCNLDCQEEPDSCISEKLFMEMAELMVSEGWKDAGYEYLCIDDCWMAPQRDSEGRLQADPQRFPHGIRQLANYVHSKGLKLGIYADVGNKTCAGFPGSFGYYDIDAQTFADWGVDLLKFDGCYCDSLENLADGYKHMSLALNRTGRSIVYSCEWPLYMWPFQKPNYTEIRQYCNHWRNFADIDDSWKSIKSILDWTSFNQERIVDVAGPGGWNDPDMLVIGNFGLSWNQQVTQMALWAIMAAPLFMSNDLRHISPQAKALLQDKDVIAINQDPLGKQGYQLRQGDNFEVWERPLSGLAWAVAMINRQEIGGPRSYTIAVASLGKGVACNPACFITQLLPVKRKLGFYEWTSRLRSHINPTGTVLLQLENTMQMSKDLHL
modifications: Synthetic Polypeptide sequence of Variant No. 111 of mature Human GLA
- Relative Activity of GLA Variants After No Challenge (NC) [1]: ++ (++ = >1.5 to 2.5 relative activity over WT GLA (SEQ ID NO: 5))
- Relative Activity of GLA Variants After Challenge at pH 4.2 [2]: ++ (++ = >1.5 to 2.5 relative activity over WT GLA (SEQ ID NO: 5))
- Relative Activity of GLA Variants After Challenge at pH 7.1 [3]: ++ (++ = >1.5 to 2.5 relative activity over WT GLA (SEQ ID NO: 5))

B6: 114 (protein)
chain: LDNGLARTPTMGWLHWERFMCNLDCQEEPDSCISEKLFMEMAELMVSEGWKDAGYEYLCIDDCWMAPQRDSEGRLQADPQRFPHGIRQLANYVHSKGLKLGIYADVGNKTCAGFPGSFGYYDIDAQTFADWGVDLLKFDGCYCDSLENLADGYKHMSLALNRTGRSIVYSCEWPLYMWPFQKPNYTEIRQYCNHWRNFADIDDSWKSIKSILDWTSFNQERIVDVAGPGGWNDPDMLVIGNFGLSWNQQVTQMALWAIMAAPLFMSNDLRHISPQAKALLQDKDVIAINQDPLGKQGYQLRQGDNFEVWERPLSGLAWAVAMINRQEIGGPRSYTIAVASLGKGVACNPACFITQLLPVKRKLGFYEWTSRLRSHINPTGTVLLQLENTMQMSKDLRL
modifications: Synthetic Polypeptide sequence of Variant No. 114 of mature Human GLA
- Relative Activity of GLA Variants After No Challenge (NC) [1]: ++ (++ = >1.5 to 2.5 relative activity over WT GLA (SEQ ID NO: 5))
- Relative Activity of GLA Variants After Challenge at pH 4.2 [2]: ++ (++ = >1.5 to 2.5 relative activity over WT GLA (SEQ ID NO: 5))
- Relative Activity of GLA Variants After Challenge at pH 7.1 [3]: ++ (++ = >1.5 to 2.5 relative activity over WT GLA (SEQ ID NO: 5))

B7: 115 (protein)
chain: LDNGLARTPTMGWLHWERFMCNLDCQEEPDSCISEKLFMEMAELMVSEGWKDAGYEYLCIDDCWMAPQRDSEGRLQADPQRFPHGIRQLANYVHSKGLKLGIYADVGNKTCAGFPGSFGYYDIDAQTFADWGVDLLKFDGCYCDSLENLADGYKHMSLALNRTGRSIVYSCEWPLYMWPFQKPNYTEIRQYCNHWRNFADIDDSWKSIKSILDWTSFNQERIVDVAGPGGWNDPDMLVIGNFGLSWNQQVTQMALWAIMAAPLFMSNDLRHISPQAKALLQDKDVIAINQDPLGKQGYQLRQGDNFEVWERPLSGLAWAVAMINRQEIGGPRSYTIAVASLGKGVACNPACFITQLLPVKRKLGFYEWTSRLRSHINPTGTVLLQLENTMQMSKDLTL
modifications: Synthetic Polypeptide sequence of Variant No. 115 of mature Human GLA
- Relative Activity of GLA Variants After No Challenge (NC) [1]: ++ (++ = >1.5 to 2.5 relative activity over WT GLA (SEQ ID NO: 5))
- Relative Activity of GLA Variants After Challenge at pH 4.2 [2]: ++ (++ = >1.5 to 2.5 relative activity over WT GLA (SEQ ID NO: 5))
- Relative Activity of GLA Variants After Challenge at pH 7.1 [3]: +++ (+++ = >2.5 relative activity over WT GLA (SEQ ID NO: 5))

B8: 112 (protein)
chain: LDNGLARTPTMGWLHWERFMCNLDCQEEPDSCISEKLFMEMAELMVSEGWKDAGYEYLCIDDCWMAPQRDSEGRLQADPQRFPHGIRQLANYVHSKGLKLGIYADVGNKTCAGFPGSFGYYDIDAQTFADWGVDLLKFDGCYCDSLENLADGYKHMSLALNRTGRSIVYSCEWPLYMWPFQKPNYTEIRQYCNHWRNFADIDDSWKSIKSILDWTSFNQERIVDVAGPGGWNDPDMLVIGNFGLSWNQQVTQMALWAIMAAPLFMSNDLRHISPQAKALLQDKDVIAINQDPLGKQGYQLRQGDNFEVWERPLSGLAWAVAMINRQEIGGPRSYTIAVASLGKGVACNPACFITQLLPVKRKLGFYEWTSRLRSHINPTGTVLLQLENTMQMSKDLIL
modifications: Synthetic Polypeptide sequence of Variant No. 112 of mature Human GLA
- Relative Activity of GLA Variants After No Challenge (NC) [1]: + (+ = 0.5 to 1.5 relative activity over WT GLA (SEQ ID NO: 5))
- Relative Activity of GLA Variants After Challenge at pH 4.2 [2]: ++ (++ = >1.5 to 2.5 relative activity over WT GLA (SEQ ID NO: 5))
- Relative Activity of GLA Variants After Challenge at pH 7.1 [3]: + (+ = 0.5 to 1.5 relative activity over WT GLA (SEQ ID NO: 5))
